The values that follow come from paper PMC11209382, “Exploring the Potentiality of a Plant Platform for Monoclonal Antibody Production in Veterinary Medicine” (Vaccines, 2024).

In general, IC50 refers to the concentration at which inhibition is half-maximal. High values mean lower potency, low ones higher potency. As a reminder, the stoichiometry N is the number of molecules, sites or subunits per partner or assembly. As a reminder, the koff is the first-order rate constant of dissociation. The term Kd denotes the equilibrium constant for the complex coming apart.

The target of experiment [1] is canine neonatal Fc receptor, C-terminus biotinylated, attached to Streptavidin (cFcRn-SmBiT) (canine). The experiment is described as follows: other; competition with IgG-LgBiT tracer.
Experiment [2] has as its target recombinant canine Interleukin 31 produced in HEK cells (canine). As to the kind of experiment: dynamic light scattering; hydrodynamic radius of cIL-31 at pH 7.5; monomer to dimer.
Experiment [3] has as its target recombinant canine Interleukin 31 produced in Nicotiana benthamiana (canine). The experiment is described as follows: SEC; elution volume on a calibrated Superdex 200 column; monomer to dimer. (Size exclusion chromatography separates by hydrodynamic size, large species first.)
Experiment [4] has the same target. The experiment is described as follows: dynamic light scattering; hydrodynamic radius of cIL-31 at pH 7.5; monomer to dimer.
Experiment [5] deals with T1, canine neonatal Fc receptor, C-terminus biotinylated, attached to Streptavidin (cFcRn-SmBiT) (canine, biotin at the C-terminus).
T1 chain 1: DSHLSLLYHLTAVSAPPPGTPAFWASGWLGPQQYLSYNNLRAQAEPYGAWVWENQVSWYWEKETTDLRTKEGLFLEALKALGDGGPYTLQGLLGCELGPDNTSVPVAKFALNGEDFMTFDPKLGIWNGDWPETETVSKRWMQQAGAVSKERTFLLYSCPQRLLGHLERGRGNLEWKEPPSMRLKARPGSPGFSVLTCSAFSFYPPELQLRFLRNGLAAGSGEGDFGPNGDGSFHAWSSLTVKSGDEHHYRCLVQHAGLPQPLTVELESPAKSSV
T1 chain 2: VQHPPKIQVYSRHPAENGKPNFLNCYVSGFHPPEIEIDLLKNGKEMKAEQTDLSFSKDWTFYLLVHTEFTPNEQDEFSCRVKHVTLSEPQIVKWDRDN
The experiment is described as follows: competition with IgG-LgBiT tracer.

Experiment [6] has as its target T2, recombinant canine Interleukin 31 produced in HEK cells (canine).
T2 chain: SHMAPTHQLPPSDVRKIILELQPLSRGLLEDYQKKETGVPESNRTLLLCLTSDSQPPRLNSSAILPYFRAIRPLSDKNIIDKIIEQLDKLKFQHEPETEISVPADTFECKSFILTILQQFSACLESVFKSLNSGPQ
The experiment is described as follows: BLI. For orientation: In BLI a coated tip is dipped into the sample, and binding shifts an interference pattern.

Experiment [7] deals with T3, recombinant canine Interleukin 31 produced in HEK cells (canine).
T3 construct: canine Interleukin 31 (IL-31); also called rcIL-31 (HEK); cIL-31 (HEK); source: produced in HEK cells
T3 chain: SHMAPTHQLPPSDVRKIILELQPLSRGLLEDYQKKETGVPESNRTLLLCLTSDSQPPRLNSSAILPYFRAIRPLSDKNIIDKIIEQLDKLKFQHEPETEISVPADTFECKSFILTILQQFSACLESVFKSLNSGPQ
The experiment is described as follows: BLI; Lokivetmab or M1 (5 nM) immobilised on ProA biosensors to 1 nm; rcIL-31 (HEK) 300 to 80 nM in solution; 25 °C, PBS pH 7.4, 0.1% BSA, 0.02% Tween; association 360 s, dissociation 600 s; global fit, KD from kd/ka. As to conditions: both partners purified.

The molecule Lokivetmab yielded an IC50 in experiment [1] of 68.7 µg/mL.
Consider “recombinant canine Interleukin 31 produced in HEK cells (ligand)”, for which the stoichiometry N in experiment [2] stood at 2.
As for “recombinant canine Interleukin 31 produced in Nicotiana benthamiana (ligand)”, the stoichiometry N in experiment [3] and in experiment [4] was 2 each time.

B1: plant-made anti-cIL-31 monoclonal antibody M1 produced in wild-type N. benthamiana (antibody)
chain 1: EVQLVESGGDLVKPGGSLRLSCVASGFTFSNYGMSWVRQAPGKGLQWVATISYGGSYTYYPDNIKGRFTISRDNAKNTLYLQMNSLRAEDTAMYYCVRGYGYDTMDYWGQGTLVTVSS
chain 2: EIVMTQSPASLSLSQEEKVTITCKASQSVSFAGTGLMHWYQQKPGQAPKLLIYRASNLEAGVPSRFSGSGSGTDFSFTISSLEPEDVAVYYCQQSREYPWTFGQGTKLEIK
Regarding B1, the IC50 in experiment [5] came out at 17.9 µg/mL.

B2: Lokivetmab (antibody, V domains shown)
VH: EVQLVESGGDLVKPGGSLRLSCVASGFTFSNYGMSWVRQAPGKGLQWVATISYGGSYTYYPDNIKGRFTISRDNAKNTLYLQMNSLRAEDTAMYYCVRGYGYDTMDYWGQGTLVTVSS
VL: EIVMTQSPASLSLSQEEKVTITCKASQSVSFAGTGLMHWYQQKPGQAPKLLIYRASNLEAGVPSRFSGSGSGTDFSFTISSLEPEDVAVYYCQQSREYPWTFGQGTKLEIK
notes: Caninized IgG; major N-glycoform GnGnF (79%); also called caninized monoclonal antibody targeting IL-31; commercial homolog of M1; source: produced in CHO cells; commercial product
Regarding B2, in experiment [6], the koff came out at 0.00205 s⁻¹. For the same molecule, in experiment [7], the equilibrium dissociation constant (Kd) is 27.4 nM.

B3: plant-made anti-cIL-31 monoclonal antibody M1 produced in FucT/XylT mutant (ΔXF) N. benthamiana (antibody, V domains shown)
VH: EVQLVESGGDLVKPGGSLRLSCVASGFTFSNYGMSWVRQAPGKGLQWVATISYGGSYTYYPDNIKGRFTISRDNAKNTLYLQMNSLRAEDTAMYYCVRGYGYDTMDYWGQGTLVTVSS
VL: EIVMTQSPASLSLSQEEKVTITCKASQSVSFAGTGLMHWYQQKPGQAPKLLIYRASNLEAGVPSRFSGSGSGTDFSFTISSLEPEDVAVYYCQQSREYPWTFGQGTKLEIK
notes: CAN-34D03-VH-568-1); CAN 34D03-VL998-1); LC constant domain kappa (XP_035562095.1); Full IgG; N-glycans lack core α(1,3)-fucose and β(1,2)-xylose; also called M1 ΔXF; plant-made Lokivetmab biosimilar; source: ΔXF N. benthamiana, transient expression, purified (Protein A: Hi Screen Fibro PrismA)
With B3, in experiment [6], the koff stood at 0.00345 s⁻¹. The molecule also displayed a concentration for half-maximal inhibition (IC50) in experiment [5] of 21.6 µg/mL. The dissociation constant Kd in experiment [7] came to 28.5 nM.
